Experiment [1] deals with Schizosaccharomyces pombe Rpn10, full-length (residues 1-243) (Schizosaccharomyces pombe) (UniProt O94444). In words: AUC.
The target is the same in experiment [2]. In words: ITC. On the technique in general: Isothermal titration calorimetry measures the heat released or taken up as one component is titrated into another.
Experiment [3] has the same target. As to the kind of experiment: SPR. (In general: In SPR one partner is held on a chip, and binding of the other changes the refractive index at the surface.)

Chain of Schizosaccharomyces pombe Rpn10, full-length (residues 1-243) (Schizosaccharomyces pombe) (O94444 whole entry, the tested form may be a part): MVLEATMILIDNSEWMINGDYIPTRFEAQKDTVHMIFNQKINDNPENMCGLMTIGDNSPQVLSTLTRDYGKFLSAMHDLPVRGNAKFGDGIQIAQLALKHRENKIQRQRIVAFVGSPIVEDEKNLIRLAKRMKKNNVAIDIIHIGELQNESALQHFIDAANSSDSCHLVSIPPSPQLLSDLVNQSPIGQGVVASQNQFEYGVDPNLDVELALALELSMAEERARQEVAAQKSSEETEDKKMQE

The term stoichiometry N denotes the number of molecules, sites or subunits per partner or assembly. As usually defined, the Kd is the concentration at which binding is half-saturated. The low end stands for a tighter complex, the high end for a looser complex. On to “Lys48-linked diubiquitin (from UniProt P0CG47 1-76; P0CG47 1-76)”, for which the stoichiometry N in experiment [1] and in experiment [2] was 1 each time. The Kd was 13.9 µM in experiment [2] and 35 µM in experiment [3].
In turn, “Lys63-linked diubiquitin (from UniProt P0CG47 1-76; P0CG47 1-76)” showed a stoichiometry N in experiment [1] of 1. Moreover, in experiment [2], the KD of each of the two equivalent sites was found to be 134 µM.

The values are drawn from article PMC2962499.
